Results from US20240316154A1.

Legend:
Experiment in all cases: cell-based or functional assay
[1] = target: IL-2 receptor-dimer pair of the PathHunter IL-2 BioAssay cells
[2] = target: human CNTF receptor (CNTFR) on IMR-32 cells (human) (UniProt P26992)
[3] = target: human ErbB4 receptor (NCBI Ref. Seq. No. NP_001036064.1) (human) (UniProt Q15303)
[4] = target: human GFRAL and human RET on HEK293 cells (human) (UniProt Q6UXV0)

Sequence of human CNTF receptor (CNTFR) on IMR-32 cells (human) (P26992 23-342): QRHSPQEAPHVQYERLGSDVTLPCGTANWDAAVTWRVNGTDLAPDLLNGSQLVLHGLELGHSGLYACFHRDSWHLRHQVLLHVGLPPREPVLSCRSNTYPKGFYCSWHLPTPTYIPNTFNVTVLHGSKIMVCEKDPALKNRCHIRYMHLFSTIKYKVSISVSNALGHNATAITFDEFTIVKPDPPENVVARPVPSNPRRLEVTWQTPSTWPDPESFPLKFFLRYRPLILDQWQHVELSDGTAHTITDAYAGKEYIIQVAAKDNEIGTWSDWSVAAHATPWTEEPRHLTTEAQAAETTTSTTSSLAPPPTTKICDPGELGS

With “Human IL-2 (reference standard of the PathHunter IL-2 BioAssay Kit) (from UniProt P60568 21-153) (ligand)” the EC50 (nM), PathHunter IL-2 BioAssay [1] was 0.13 nM.

For “human CNTF (R&D Systems; Cat #257-NT-010) (from UniProt P26441 2-200) (ligand)”, the hCNTFR EC50 pM GeoMean (pSTAT3 in IMR-32 cells) [2] was 3.5 pM.

Work on “rhNRG-1 (eurofins cat #92-1091) (from UniProt Q02297 177-241) (ligand)” yielded an EC50 (ng/mL), PathHunter ErbB4/ErbB4 dimerization assay [3] of 16.5 ng/mL.

“Human GDF15 (from UniProt Q99988 197-308) (ligand)” gave a hGFRAL/RET EC50 (pM), p-ERK1/2 AlphaLISA [4] of 2.85 pM.
